Measurements published in paper PMC8580320 (Science Advances, 2021).

Biological target: the molecule itself
Assay: crystal structure

B1: MtaLonC-S582A (enzyme)
chain: MRLSYEALEWRTPIENSTEPVSLPPPPPFFGQERAREALELAIRGGFHAYLVGPPSLGKHEALLAYLSTQSVETPPDLLYVPLSERKVAVLTLPSGQEIHLAEAVEGLLLEVNRLDELFRQGSFLREKTQLEARFKEAREQQLEALRREAQEAGFALSTNGERLELTGPGPVPAELSARLEEVTLGSLAASAELEVALRRLRRDWALHYLNNRFEPLFQRFPQARAYLEALRARLARYAETGEPLDPAQWRPNLLTSSSSGTPPPIVYEPYATAPRLFGRLDYLVDRGVWSTNVSLIRPGAVHRAQGGYLILDALSLKREGTWEAFKRALRNGQVEPVTEPQAPAGLEVEPFPIQMQVILVGTPEAFEGLEEDPAFSELFRIRAEFSPTLPASPENCTALGGWLLAQGFQLTQGGLTRLYDEARRMAEQRDRMDARLVEIRALAEEAAVLGGGLLTAESVEQAIAAREHRSFLSEEEFLRAVQEGVIRLRTTGRAVGEVNSLVVVEAAPYWGRPARLTARAAPGRDHLISIDREAGLGGQIFHKAVLTLAGYLRSRYIEHGSLPVTISLAFEQNYVSIEGDAAGLAELVAALSAIGNLPLRQDLAVTGAVDQTGKVLAVGAINAKVEGFFRVCKALGLSGTQGVILPEANLANLTLRAEVLEAVRAGQFHIYAVETAEQALEILAGARMEGFRGLQEKIRAGLEAFARLEEGHDKEDREKLAAALEHHHHHH
stoichiometry N: 6
